What was measured:
Type in all cases: cell-based, human
[1] = test system: wild-type and variant SNAP-GIPR; assay: Surface SNAP-GIPR expression (SNAP-tag labelling) in AD293 cells; conditions: for AD293 Surface: Fig S3E, mean; for Surface SNAP-GIPR expression: sheet Fig 1C;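 on all read-outs here: scaled to the experimental average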
Method: (§1) Twenty-four hours before the experiment, AD293 or INS-1 cells were reverse transfected with GIPR variant or wild-type plasmids using Lipofectamine 2000 in 96-well, clear-bottom, black microplates precoated with poly-D-lysine. All variants were tested in parallel on each occasion to control for transfection efficiency differences between experiments. Cells were then labeled using the cell-impermeant probe SNAP-Surface Alexa Fluor 647 (500 nM, New England Biolabs, USA) for 10 min at room temperature to label only surface GIPR. […] Several fields of view (FOVs) were acquired within each well using a 20X, 0.75–numerical aperture (NA) air objective. Surface GIPR fluorescence was quantified after flat-field correction using BaSiC ([72]) and segmenting using Phantast ([73]), which generates a mask based on the phase contrast images to demarcate cell versus noncell. Wide-field imaging of the surface-specific labeling achieved by SNAP-Surface probes means that surface expression can be established from whole-cell fluorescence, after subtracting nonspecific fluorescence from a separate well containing nontransfected cells processed in parallel from the same experiment. Data were normalized by dividing by the average specific signal across each experiment, or by the wild-type value, as indicated in the figure legends.

[2] = test system: wild-type and variant SNAP-GIPR; assay: Single-concentration GIP cAMP response by HTRF in AD293 cells; conditions: Fig S3F, HTRF, mean;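 further: ratio to experiment-wide average response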
Method: (§2) All variants were tested in parallel on each occasion to control for transfection efficiency differences between experiments.

[3] = test system: wild-type and variant SNAP-GIPR; assay: Constitutive and agonist-mediated internalization, reversible SNAP-tag labelling, AD293 cells; parameters: key to Internalisation, Vehicle / Internalisation, +GIP / Internalisation, GIP-only: % internalization: residual fluorescence after Mesna vs pre-Mesna; Surface expression: unit not given here; conditions: Mean
Method: (§3) Twenty-four hours before the experiment, AD293 or INS-1 cells were reverse transfected with GIPR variant or wild-type plasmids using Lipofectamine 2000 in 96-well, clear-bottom, black microplates precoated with poly-D-lysine. All variants were tested in parallel on each occasion to control for transfection efficiency differences between experiments. […] Media were then removed, cells washed with PBS and then placed in TNE buffer (pH 8.6) for imaging. […] After 10 min, the well was reimaged again to detect remaining fluorescence from internalized GIPR. Images were analyzed as in the “Assessment of surface GIPR expression by SNAP-tag labeling in cell lines” section, with the residual specific fluorescence after Mesna treatment expressed relative to the pre-Mesna value to establish percentage internalization.

[4] = test system: wild-type and variant SNAP-GIPR; assay: Single-concentration GIP cAMP response by HTRF in INS-1 cells; conditions: Fig S3E, mean
Method: as §2

[5] = test system: wild-type and variant SNAP-GIPR; assay: Surface SNAP-GIPR expression (SNAP-tag labelling) in INS-1 cells; conditions: Fig 4G; Mean
Method: as §1

[6] = test system: wild-type and variant SNAP-GIPR; assay: Constitutive and agonist-mediated internalization, reversible SNAP-tag labelling, INS-1 cells; parameters: key to Internalisation, GIP-only / Internalisation, Vehicle / Internalisation, +GIP: % internalization: residual fluorescence after Mesna vs pre-Mesna; conditions: Mean
Method: as §3

[7] = test system: wild-type and variant SNAP-GIPR; assay: cADDis cAMP imaging in AD293 cells, ensemble, expression-matched and per decile; conditions: Fig S3F, cADDis, mean
Method: AD293 cells were reverse transfected with the GIPR variant or wild-type plasmids using Lipofectamine 2000 and cotransduced with the cADDis Green Up BacMam (10 μl per well, Montana Molecular, USA), in 96-well, poly-D-lysine–coated microplates. All variants were tested in parallel on each occasion to control for transfection efficiency differences between experiments. After 24 hours, cells were labeled using 500 nM SNAP-Surface Alexa Fluor 647 for 10 min at room temperature. Cells were washed three times and then imaged in KRBH buffer containing 6 mM glucose and 0.1% BSA. Imaging was performed at 37°C by wide-field microscopy using the same microscope as in the “Assessment of surface GIPR expression by SNAP-tag labeling in cell lines” section, with 9 FOVs for both cADDis and SNAP-Surface fluorescence acquired from each well using a 10X, 0.45 NA air objective. […] Flat-field correction was performed using BaSiC ([72]), drift correction was performed using SIFT, and a maximum intensity projection of the cADDis channel was used to segment individual cells. cAMP responses were determined by quantifying the cADDis fluorescence intensity for each cell at each time point. Nonviable cells or noncell objects were excluded according to criteria for allowable cell IBMX/FSK responses. […] The cADDis mask was then used to quantify the SNAP-Surface signal from each cell. Wild-type SNAP-Surface readings were split into deciles, and these deciles were subsequently used to categorize variant-transfected cells to match against the wild type. After trimming the top and bottom deciles, the mean was taken of each decile mean for surface expression level or cAMP response, which achieved matched expression levels by effectively applying an inverse weighting to counteract differences in cell number in each decile for different variants. Ensemble expression levels or cAMP responses were calculated without regard to deciles. Variant cADDis responses were also analyzed within their own surface expression deciles.

B1: I378M (protein, UniProt P48546 22-466, looked up, variant I378M)
Gastric inhibitory …: RAETGSKGQTAGELYQRWERYRRECQETLAAAEPPSGLACNGSFDMYVCWDYAAPNATARASCPWYLPWHHHVAAGFVLRQCGSDGQWGLWRDHTQCENPEKNEAFLDQRLILERLQVMYTVGYSLSLATLLLALLILSLFRRLHCTRNYIHINLFTSFMLRAAAILSRDRLLPRPGPYLGDQALALWNQALAACRTAQIVTQYCVGANYTWLLVEGVYLHSLLVLVGGSEEGHFRYYLLLGWGAPALFVIPWVIVRYLYENTQCWERNEVKAIWWIIRTPILMTILINFLIFIRILGILLSKLRTRQMRCRDYRLRLARSTLTLVPLLGVHEVVFAPVTEEQARGALRFAKLGFEMFLSSFQGFLVSVLYCFINKEVQSEIRRGWHHCRLRRSLGEEQRQLPERAFRALPSGSGPGEVPTSRGLSSGTLPGPGNEASRELESYC
B1 was tested, and the “AD293 Surface” value ([1]; column repeated, paired with cAMP 100 nM) was 1.77, the “AD293 Surface” value ([1]; paired with cAMP 100 pM) was 1.77 and the “Surface SNAP-GIPR expression” value ([1]; replicate 1) was 1.773. The “Surface SNAP-GIPR expression” value ([1]; replicate 2) was 1.115, the “Surface SNAP-GIPR expression” value ([1]; replicate 3) was 0.7558 and the “Surface SNAP-GIPR expression” value ([1]; replicate 4) was 2.264. The “Surface SNAP-GIPR expression” value ([1]; replicate 5) was 2.029, the “Surface SNAP-GIPR expression” value ([1]; replicate 6) was 1.522 and the “Surface SNAP-GIPR expression” value ([1]; replicate 7) was 1.263. For the same molecule, the “Surface SNAP-GIPR expression” value ([1]; replicate 8) was 1.045, the “Surface SNAP-GIPR expression” value ([1]; replicate 9) was 1.7 and the “Surface SNAP-GIPR expression” value ([1]; replicate 10) was 1.857. For the same molecule, the “Surface SNAP-GIPR expression” value ([1]; replicate 11) was 1.523, the “Surface SNAP-GIPR expression” value ([1]; replicate 12) was 1.59 and the “Surface SNAP-GIPR expression” value ([1]; replicate 13) was 1.942. The “Surface SNAP-GIPR expression” value ([1]; replicate 14) was 2.071, the “Surface SNAP-GIPR expression” value ([1]; replicate 15) was 1.739 and the “Surface SNAP-GIPR expression” value ([1]; replicate 16) was 1.656. For the same molecule, the “Surface SNAP-GIPR expression” value ([1]; replicate 17) was 1.757, the “Surface SNAP-GIPR expression” value ([1]; replicate 18) was 2.038 and the “Surface SNAP-GIPR expression” value ([1]; replicate 19) was 1.806. For the same molecule, the “Surface SNAP-GIPR expression” value ([1]; replicate 20) was 1.652, the “Surface SNAP-GIPR expression” value ([1]; replicate 21) was 1.678 and the “Surface SNAP-GIPR expression” value ([1]; replicate 22) was 1.86. The “Surface SNAP-GIPR expression” value ([1]; replicate 23) was 1.91, the “Surface SNAP-GIPR expression” value ([1]; replicate 24) was 1.99 and the “Surface SNAP-GIPR expression” value ([1]; replicate 25) was 1.721. The “Surface SNAP-GIPR expression” value ([1]; replicate 26) was 1.677, the “Surface SNAP-GIPR expression” value ([1]; replicate 27) was 2.102 and the “Surface SNAP-GIPR expression” value ([1]; replicate 28) was 2.164. For the same molecule, the “Surface SNAP-GIPR expression” value ([1]; replicate 29) was 2.007, the “Surface SNAP-GIPR expression” value ([1]; replicate 30) was 1.865 and the “Surface SNAP-GIPR expression” value ([1]; replicate 31) was 1.878. The “Surface SNAP-GIPR expression” value ([1]; replicate 32) was 1.784, the “Surface SNAP-GIPR expression” value ([1]; replicate 33) was 1.822 and the “Surface SNAP-GIPR expression” value ([1]; replicate 34) was 1.937. For the same molecule, the “Surface SNAP-GIPR expression” value ([1]; replicate 35) was 1.581, the “Surface SNAP-GIPR expression” value ([1]; replicate 36) was 1.504 and the “Surface SNAP-GIPR expression” value ([1]; replicate 37) was 2.229. For the same molecule, the “Surface SNAP-GIPR expression” value ([1]; replicate 38) was 1.734, the “Surface SNAP-GIPR expression” value ([1]; replicate 39) was 2.181 and the “Surface SNAP-GIPR expression” value ([1]; replicate 40) was 1.889. The “Surface SNAP-GIPR expression” value ([1]; replicate 41) was 1.94, the “AD293 100 pM HTRF” value ([2]; AD293, 100 pM) was 1.235 and the “AD293 100 nM HTRF” value ([2]; AD293, 100 nM) was 1.479. The “+GIP internalisation (100 nM)” value ([3]; Fig 4E, GIP 100 nM) was 1.013, the “GIP-specific internalisation (100 nM)” value ([3]; Fig 4E, GIP 100 nM) was 0.2773 and the “Constitutive internalisation (100 nM)” value ([3]; Fig 4E) was 0.7358. The Surface expression ([3]; Fig 4E) was 1.854, the “Internalisation, +GIP” value ([3]; Fig S4C, AD293) was 54.7212 and the “Internalisation, GIP-only” value ([3]; Fig S4C, AD293) was 14.9417. For the same molecule, the “Internalisation, Vehicle” value ([3]; Fig S4C, AD293) was 39.7795, the “INS-1 cAMP (100 nM)” value [4] was 1.242 and the Surface expression [5] was 1.534. For the same molecule, the “+GIP internalisation (100 nM)” value ([6]; Fig 4G, GIP 100 nM) was 0.6937, the “GIP-specific internalisation (100 nM)” value ([6]; Fig 4G, GIP 100 nM) was 0.1611 and the “Constitutive internalisation (100 nM)” value ([6]; Fig 4G) was 0.5325. The “Internalisation, +GIP” value ([6]; Fig S4C, INS-1) was 45.8367, the “Internalisation, GIP-only” value ([6]; Fig S4C, INS-1) was 10.74 and the “Internalisation, Vehicle” value ([6]; Fig S4C, INS-1) was 35.0967. The “AD293 100 pM cADDis” value ([7]; AD293, 100 pM) was 37.0191 and the “AD293 100 nM cADDis” value ([7]; AD293, 100 nM) was 39.23.

Reference: publication PMC13544220, “Glycemic and bodyweight effects of GIPR coding variation reflect differences in surface expression and intrinsic functional impairment” (Science Advances, 2026)
